According to paper PMC7215194 (Heliyon, 2020):

Target: dansyl-calmodulin (recombinant rat CaM, dansylated) (rat, UniProt P0DP29 1-149, dansylated with dansyl chloride)
Assay: other fluorescence titration

binding result: binds
Binder: RKLWKRFFCFLRRS
